{
  "source": "paper PMC4498735",
  "about": "“Fibulin-1C, C1 Esterase Inhibitor and Glucose Regulated Protein 75 Interact with the CREC Proteins, Calumenin and Reticulocalbin” (PLoS ONE, 2015)",
  "conditions_in_all_cases": "both partners purified",
  "key": {"GST-fibulin-1C [1]": {"biological_target": "T1, GST-fibulin-1C (UniProt P23142-4 33-683)", "T1 construct": "fibulin-1C, amino acids 33-683, cloned into pGEX-4T3; the C variant has 683 amino acids; also called recombinant GST-fibulin-1C; source: E. coli, purified (glutathione-sepharose, Superdex 200)", "T1 sequence (looked up)": "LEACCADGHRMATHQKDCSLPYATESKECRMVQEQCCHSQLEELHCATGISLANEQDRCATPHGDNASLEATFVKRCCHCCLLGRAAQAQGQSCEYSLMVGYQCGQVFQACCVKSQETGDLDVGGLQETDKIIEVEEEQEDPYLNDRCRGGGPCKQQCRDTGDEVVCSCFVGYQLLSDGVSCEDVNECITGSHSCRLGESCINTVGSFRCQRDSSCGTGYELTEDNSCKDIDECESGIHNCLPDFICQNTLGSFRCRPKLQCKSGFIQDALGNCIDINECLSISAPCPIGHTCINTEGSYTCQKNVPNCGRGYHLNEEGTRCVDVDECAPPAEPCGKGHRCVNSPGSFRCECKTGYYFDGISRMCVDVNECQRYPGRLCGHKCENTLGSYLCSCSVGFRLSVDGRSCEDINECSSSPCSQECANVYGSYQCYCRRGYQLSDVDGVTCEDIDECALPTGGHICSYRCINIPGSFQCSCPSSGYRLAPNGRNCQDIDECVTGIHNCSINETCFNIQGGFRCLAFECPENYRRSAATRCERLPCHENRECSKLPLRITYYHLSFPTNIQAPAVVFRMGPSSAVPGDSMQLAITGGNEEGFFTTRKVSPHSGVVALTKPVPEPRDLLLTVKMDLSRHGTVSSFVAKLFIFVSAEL", "assay": "SPR; Biacore 2000/3000, CM5 chip, calumenin, GST-calumenin, reticulocalbin or GST amine-coupled; 25°C; 10 mM HEPES, 150 mM NaCl, 5 mM CaCl2, 1 mM EGTA, 0.005% Tween 20, pH 7.4; 1:1 Langmuir model; apparent KD from koff/kon"}, "[2]": {"biological_target": "T2, C1 esterase inhibitor (commercial, Calbiochem) (UniProt P05155 23-500)", "T2 construct": "source: bought: Calbiochem", "T2 sequence (looked up)": "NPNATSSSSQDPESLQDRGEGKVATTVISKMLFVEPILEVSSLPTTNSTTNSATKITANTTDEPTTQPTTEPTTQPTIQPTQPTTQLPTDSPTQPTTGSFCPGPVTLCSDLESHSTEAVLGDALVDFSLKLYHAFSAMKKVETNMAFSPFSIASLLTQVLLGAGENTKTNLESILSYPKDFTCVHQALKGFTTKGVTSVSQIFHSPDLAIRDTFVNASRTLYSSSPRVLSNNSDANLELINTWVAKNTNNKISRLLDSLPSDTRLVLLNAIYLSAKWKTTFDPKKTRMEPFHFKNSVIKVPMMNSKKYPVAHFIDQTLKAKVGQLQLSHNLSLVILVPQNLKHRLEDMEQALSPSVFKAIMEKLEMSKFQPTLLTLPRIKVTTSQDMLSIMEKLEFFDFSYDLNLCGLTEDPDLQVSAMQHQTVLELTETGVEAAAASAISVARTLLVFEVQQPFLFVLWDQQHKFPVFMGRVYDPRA", "assay": "SPR; Biacore 2000/3000, CM5 chip, calumenin, GST-calumenin, reticulocalbin or GST amine-coupled; 25°C; 10 mM HEPES, 150 mM NaCl, 5 mM CaCl2, 1 mM EGTA, 0.005% Tween 20, pH 7.4; 1:1 Langmuir model; apparent KD from koff/kon"}, "[3]": {"biological_target": "T3, recombinant GST-grp75 (AAH00478.1) (human, UniProt P38646 47-679)", "T3 construct": "also called glucose regulated protein 75; mortalin; source: bought: Abnova (Taipei, Taiwan)", "T3 sequence (P38646 47-679)": "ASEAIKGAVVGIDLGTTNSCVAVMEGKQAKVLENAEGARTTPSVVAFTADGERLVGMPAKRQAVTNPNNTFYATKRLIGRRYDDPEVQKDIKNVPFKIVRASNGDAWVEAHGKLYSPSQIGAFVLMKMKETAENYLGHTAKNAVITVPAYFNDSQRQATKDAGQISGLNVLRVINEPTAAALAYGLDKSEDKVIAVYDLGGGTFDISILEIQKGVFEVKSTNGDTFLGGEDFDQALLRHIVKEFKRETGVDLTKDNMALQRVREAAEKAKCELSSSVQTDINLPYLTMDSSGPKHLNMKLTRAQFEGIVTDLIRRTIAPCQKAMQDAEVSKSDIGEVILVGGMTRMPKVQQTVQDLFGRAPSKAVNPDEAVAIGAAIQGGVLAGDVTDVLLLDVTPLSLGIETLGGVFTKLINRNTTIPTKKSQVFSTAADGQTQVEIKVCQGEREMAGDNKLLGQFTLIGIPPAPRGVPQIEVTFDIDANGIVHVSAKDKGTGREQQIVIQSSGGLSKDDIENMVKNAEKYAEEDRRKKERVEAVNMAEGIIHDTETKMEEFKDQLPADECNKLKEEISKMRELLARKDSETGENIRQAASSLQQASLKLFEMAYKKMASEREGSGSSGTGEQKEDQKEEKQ", "assay": "SPR; Biacore 2000/3000, CM5 chip, calumenin, GST-calumenin, reticulocalbin or GST amine-coupled; 25°C; 10 mM HEPES, 150 mM NaCl, 5 mM CaCl2, 1 mM EGTA, 0.005% Tween 20, pH 7.4; 1:1 Langmuir model; apparent KD from koff/kon"}, "GST-fibulin-1C [4]": {"biological_target": "T1, GST-fibulin-1C", "assay": "SPR; reticulocalbin immobilised; buffer with EDTA (10 mM Hepes, 150 mM NaCl, 20 mM EDTA and 0.005% Tween 20 pH 7.4)"}},
  "data": [
    {"binder": "GST-calumenin (natural protein, UniProt O43852 20-315, looked up, source: E. coli, purified (glutathione-sepharose, Superdex 200)) KPTEKKDRVHHEPQLSDKVHNDAQSFDYDHDAFLGAEEAKTFDQLTPEESKERLGKIVSKIDGDKDGFVTVDELKDWIKFAQKRWIYEDVERQWKGHDLNEDGLVSWEEYKNATYGYVLDDPDPDDGFNYKQMMVRDERRFKMADKDGDLIATKEEFTAFLHPEEYDYMKDIVVQETMEDIDKNADGFIDLEEYIGDMYSHDGNTDEPEWVKTEREQFVEFRDKNRDGKMDKEETKDWILPSDYDHAEAEARHLVYESDQNKDGKLTKEEIVDKYDLFVGSQATDFGEALVRHDEF", "values": [
      {"measurement": "Kd", "setting": "GST-fibulin-1C [1]", "value": "~50", "unit": "nM"},
      {"measurement": "Kd", "setting": "[2]", "value": "~150", "unit": "nM"}
    ]},
    {"binder": "recombinant calumenin (immobilised; construct not told) (natural protein, UniProt O43852 20-315, looked up, calumenin; also called immobilised calumenin; source: E. coli, purified) KPTEKKDRVHHEPQLSDKVHNDAQSFDYDHDAFLGAEEAKTFDQLTPEESKERLGKIVSKIDGDKDGFVTVDELKDWIKFAQKRWIYEDVERQWKGHDLNEDGLVSWEEYKNATYGYVLDDPDPDDGFNYKQMMVRDERRFKMADKDGDLIATKEEFTAFLHPEEYDYMKDIVVQETMEDIDKNADGFIDLEEYIGDMYSHDGNTDEPEWVKTEREQFVEFRDKNRDGKMDKEETKDWILPSDYDHAEAEARHLVYESDQNKDGKLTKEEIVDKYDLFVGSQATDFGEALVRHDEF", "values": [
      {"measurement": "Kd", "setting": "[3]", "value": "~7", "unit": "nM"}
    ]},
    {"binder": "recombinant reticulocalbin (natural protein, Expressed in E. coli as a GST fusion; GST removed with thrombin. Species and limits are not printed: mouse is inferred because the plasmid came from Dr. Ozawa, whose original reticulocalbin clone was) KPTVRKERVVRPDSELGERPPEDNQSFQYDHEAFLGKEDSKTFDQLSPDESKERLGKIVDRIDSDGDGLVTTEELKLWIKRVQKRYIYDNVAKVWKDYDRDKDEKISWEEYKQATYGYYLGNPAEFHDSSDHHTFKKMLPRDERRFKASDLDGDLTATREEFTAFLHPEEFEHMKEIVVLETLEDIDKNGDGFVDQDEYIADMFSHEDNGPEPDWVLSEREQFNDFRDLNKDGKLDKDEIRHWILPQDYDHAQAEARHLVYESDKNKDEMLTKEEILDNWNMFVGSQATNYGEDLTKNHDEL", "values": [
      {"measurement": "Kd", "setting": "GST-fibulin-1C [4]", "value": "~50", "unit": "nM"},
      {"measurement": "Kd", "setting": "[3]", "value": "~3", "unit": "nM"},
      {"measurement": "Kd", "setting": "GST-fibulin-1C [1]", "value": "~60", "unit": "nM"},
      {"measurement": "Kd", "setting": "[2]", "value": "~1000", "unit": "nM"}
    ]}
  ]
}
